This is an account of results in article PMC5727476.

Assay [1] addresses Eudiplozoon nipponicum cathepsin B (EnCB) (Eudiplozoon nipponicum).
Assay [2] addresses Eudiplozoon nipponicum cathepsin L3 (EnCL3) (Eudiplozoon nipponicum).
Assay [3] deals with recombinant Ixodes ricinus asparaginyl endopeptidase (IrAe) (Ixodes ricinus).
The target of assay [4] is recombinant mouse cathepsin L (MmCL) (mouse) (UniProt P06797).
Sequence of UniProt P06797 (P06797 18-334): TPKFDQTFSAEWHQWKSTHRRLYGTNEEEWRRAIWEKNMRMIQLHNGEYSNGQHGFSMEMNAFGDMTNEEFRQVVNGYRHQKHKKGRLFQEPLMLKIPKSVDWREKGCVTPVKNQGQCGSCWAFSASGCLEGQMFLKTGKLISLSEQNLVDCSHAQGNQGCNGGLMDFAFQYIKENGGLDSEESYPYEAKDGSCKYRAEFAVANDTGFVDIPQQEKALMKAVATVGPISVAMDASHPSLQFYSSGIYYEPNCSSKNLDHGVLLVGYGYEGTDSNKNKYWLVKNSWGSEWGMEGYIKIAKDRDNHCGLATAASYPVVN

For “recombinant Eudiplozoon nipponicum stefin (rEnStef) (natural protein)”, the IC50 of inhibition of peptidase activity (continuous fluorometric assay, Z-Phe-Arg-AMC, 25 mM MES pH 6, 5 mM DTT; peptidase 10 nM) in assay [1] was 13.7 nM; in assay [2] it was 46.7 nM. For the same substance, in assay [3], the IC50 of inhibition of peptidase activity (continuous fluorometric assay, Z-Ala-Ala-Asn-AMC, 25 mM MES pH 6, 5 mM DTT; peptidase 10 nM) was found to be 371 nM. In assay [4], the IC50 of inhibition of peptidase activity (continuous fluorometric assay, Z-Phe-Arg-AMC, 25 mM MES pH 6, 5 mM DTT; peptidase 5 nM) was 133 nM.
